Results published in patent US20160368961A1 (GLYTECH, published 2016).
One block for each molecule: values may come before it. Positions of bridges follow the written chain, without caps; N, C: chain ends. Primed or numbered codes have the meaning given here. No end group written: not given here. *: point of attachment. dimannose = dimannose sugar chain attached to the residue; GlcNAc(3) = GlcNAc attached to the Cys side chain; Biotin = O=C1N[C@H]2[C@H](CS[C@H]2CCCCC(=O)*)N1; disialo = disialo sugar chain; GlcNAc = N-acetylglucosamine

Columns and labels:
[1] = target: somatostatin receptors SSTR1-SSTR5 (receptor not singled out in the sentence); assay: competitive radioligand binding
[2] = target: Somatostatin receptor SSTR3 (human recombinant, CHO-K1 cells) (human, UniProt P32745 1-418); assay: competitive radioligand binding
[3] = target: Somatostatin receptor SSTR4 (UniProt P31391 1-388, limits assumed); assay: cell-based or functional assay
[4] = target: T1, somatostatin receptor SSTR2 (Human, UniProt P30874 1-369); assay: cell-based or functional assay
[5] = target: somatostatin receptor SSTR4 (Human, UniProt P31391 1-388); assay: cell-based or functional assay
[6] = target: T1, somatostatin receptor SSTR2; assay: competitive radioligand binding
[7] = target: somatostatin receptor SSTR1 (Human, UniProt P30872 1-391); assay: competitive radioligand binding
[8] = target: somatostatin receptor SSTR3 (Human, UniProt P32745 1-418); assay: competitive radioligand binding
[9] = target: somatostatin receptor SSTR2 (human) (UniProt P30874); assay: competitive radioligand binding
[10] = target: somatostatin receptor SSTR1 (human) (UniProt P30872); assay: competitive radioligand binding
[11] = target: Somatostatin receptor SSTR5 (UniProt P35346 1-364, limits assumed); assay: cell-based or functional assay
[12] = target: Somatostatin receptor SSTR2 (UniProt P30874 1-369, limits assumed); assay: cell-based or functional assay
[13] = target: Somatostatin receptor SSTR1 (human recombinant, CHO-K1 cells) (human, UniProt P30872 1-391); assay: competitive radioligand binding
Chain of Somatostatin receptor SSTR1 (human recombinant, CHO-K1 cells) (P30872 whole entry): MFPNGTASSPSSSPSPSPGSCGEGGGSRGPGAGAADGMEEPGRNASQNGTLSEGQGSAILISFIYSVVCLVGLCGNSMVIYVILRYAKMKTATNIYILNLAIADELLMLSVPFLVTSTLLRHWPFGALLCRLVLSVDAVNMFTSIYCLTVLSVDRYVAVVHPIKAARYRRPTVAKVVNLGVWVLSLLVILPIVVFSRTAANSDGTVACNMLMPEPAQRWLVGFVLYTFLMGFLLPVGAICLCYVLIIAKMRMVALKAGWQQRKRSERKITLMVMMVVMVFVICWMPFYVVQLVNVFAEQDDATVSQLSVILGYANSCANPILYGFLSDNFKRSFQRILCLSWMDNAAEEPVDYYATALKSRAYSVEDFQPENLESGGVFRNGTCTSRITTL

T1 sequence (P30874 whole entry): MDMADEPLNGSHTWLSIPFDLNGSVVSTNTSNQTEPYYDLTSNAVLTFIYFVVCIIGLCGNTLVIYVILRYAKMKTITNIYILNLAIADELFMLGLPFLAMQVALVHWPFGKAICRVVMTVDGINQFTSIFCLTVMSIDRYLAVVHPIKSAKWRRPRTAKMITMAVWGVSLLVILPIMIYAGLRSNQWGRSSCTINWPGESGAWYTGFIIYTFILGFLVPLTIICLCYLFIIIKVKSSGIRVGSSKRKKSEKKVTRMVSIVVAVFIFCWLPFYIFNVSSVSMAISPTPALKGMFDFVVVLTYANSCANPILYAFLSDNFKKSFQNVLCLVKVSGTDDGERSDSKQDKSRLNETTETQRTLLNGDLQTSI
Chain of somatostatin receptor SSTR3 (P32745 whole entry): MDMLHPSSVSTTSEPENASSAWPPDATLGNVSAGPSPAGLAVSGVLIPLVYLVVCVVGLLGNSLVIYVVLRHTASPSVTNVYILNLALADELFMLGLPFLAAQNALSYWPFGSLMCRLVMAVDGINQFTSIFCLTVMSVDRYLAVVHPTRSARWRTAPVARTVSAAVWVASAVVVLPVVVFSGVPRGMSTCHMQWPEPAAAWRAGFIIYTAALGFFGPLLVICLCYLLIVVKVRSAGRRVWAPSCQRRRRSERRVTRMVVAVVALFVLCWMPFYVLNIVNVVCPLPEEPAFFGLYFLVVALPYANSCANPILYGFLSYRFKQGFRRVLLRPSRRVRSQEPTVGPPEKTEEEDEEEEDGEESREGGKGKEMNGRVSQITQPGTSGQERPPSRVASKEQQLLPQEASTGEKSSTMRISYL
Chain of Somatostatin receptor SSTR2 (P30874 whole entry): as the sequence (P30874 whole entry) above
Chain of Somatostatin receptor SSTR4 (P31391 whole entry): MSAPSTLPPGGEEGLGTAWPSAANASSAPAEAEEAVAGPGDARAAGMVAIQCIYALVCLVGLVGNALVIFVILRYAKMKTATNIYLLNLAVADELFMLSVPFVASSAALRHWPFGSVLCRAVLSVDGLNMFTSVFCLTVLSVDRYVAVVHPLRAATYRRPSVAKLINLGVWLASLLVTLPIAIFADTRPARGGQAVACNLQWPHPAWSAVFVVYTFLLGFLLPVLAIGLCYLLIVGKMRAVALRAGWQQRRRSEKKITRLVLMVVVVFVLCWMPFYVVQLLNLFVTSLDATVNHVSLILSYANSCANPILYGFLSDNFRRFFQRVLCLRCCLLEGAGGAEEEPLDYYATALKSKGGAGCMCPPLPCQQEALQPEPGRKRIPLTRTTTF
Chain of somatostatin receptor SSTR4 (P31391 whole entry): as above
Chain of Somatostatin receptor SSTR5 (P35346 whole entry): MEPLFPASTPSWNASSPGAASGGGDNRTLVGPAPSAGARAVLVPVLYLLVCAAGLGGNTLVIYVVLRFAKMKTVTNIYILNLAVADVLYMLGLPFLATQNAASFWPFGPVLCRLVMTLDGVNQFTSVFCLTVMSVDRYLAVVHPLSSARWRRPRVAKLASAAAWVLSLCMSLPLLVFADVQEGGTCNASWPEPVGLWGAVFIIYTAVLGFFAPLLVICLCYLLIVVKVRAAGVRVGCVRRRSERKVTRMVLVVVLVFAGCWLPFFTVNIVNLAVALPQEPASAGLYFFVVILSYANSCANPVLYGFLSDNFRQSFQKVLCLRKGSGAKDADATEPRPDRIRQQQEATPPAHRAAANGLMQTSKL
Chain of Somatostatin receptor SSTR3 (human recombinant, CHO-K1 cells) (P32745 whole entry): as the sequence (P32745 whole entry) above
Chain of somatostatin receptor SSTR1 (P30872 whole entry): as the sequence (P30872 whole entry) above
Chain of somatostatin receptor SSTR1 (human) (P30872 whole entry): as above
Chain of somatostatin receptor SSTR2 (human) (P30874 whole entry): as the sequence (P30874 whole entry) above

Molecule: S1C(disialo).N5C(disialo)-SRIF28 (peptide)
ratio of Ki to the Ki of unglycosylated SRIF14 [1]: 15.7 ratio (:1)

Molecule: C(diGlcNAc sugar chain)ANSNPAMAPRERKAGCKNFFWKTFTSC (disulfide 17-28) [S1C(diGlcNAc)-SRIF28]
IC50 of cAMP production suppressing action (agonist activity) [3]: 50 pM

Molecule: C(disialo sugar chain)ANSNPAMAPRERKAGCKNFFWKTFTSC (disulfide 17-28) [S1C(disialo)-SRIF28]
IC50 of cAMP production suppressing action (agonist activity) [4]: 75 pM
IC50 of cAMP production suppressing action (agonist activity) [5]: 65 pM

Molecule: C(disialo sugar chain)ANSC(disialo sugar chain)PAMAPRERKAGCKNFFWKTFTSC (disulfide 17-28) [S1C(disialo).N5C(disialo)-SRIF28]
IC50 of cAMP production suppressing action (agonist activity) [11]: 90 pM

Molecule: C(GlcNAc(3))ANSNPAMAPRERKAGCKNFFWKTFTSC (disulfide 17-28) [S1C(GlcNAc)-SRIF28]
IC50 of cAMP production suppressing action (agonist activity) [12]: 40 pM

Molecule: C(disialo sugar chain)ANSNPAMAPRERKAGCKNFFWKTFTSC-NH2 (disulfide 17-28) [S1C(disialo)-SRIF28-amide]
Ki [6]: 700 pM

The next lines start with the values.

IC50 [2]: 7000 pM
B1: 29C(disialo)-SRIF28 (peptide)
peptide: SANSNPAMAPRERKAGCKNFFWKTFTSCC
modifications: disialo sugar chain attached Cys added after Cys28 (position 29); disulfide bond Cys17-Cys28

Ki [6]: > 531000 pM
Ki [7]: > 828000 pM
Ki [8]: > 342000 pM
Ki as fold of that of SRIF14 [9]: 310 to 5300 fold
Ki as fold of that of SRIF14 [10]: 310 to 5300 fold
Molecule: SANSNPAMAPRERKAGCKNFFWKTC(disialo)TSC (disulfide 17-28) [F25C(disialo)-SRIF28]

Ki [6]: 3000 pM
Molecule: N(disialo sugar chain)ANSNPAMAPRERKAGCKC(dimannose)FFWKTFTSC (disulfide 17-28) [S1N(disialo).N19C(diMan)-SRIF28]

Ki [8]: 1000 pM
Molecule: Biotin-C(disialo sugar chain)ANSNPAMAPRERKAGCKNFFWKTFTSC (disulfide 17-28) [Biotin-S1C(disialo)-SRIF28]

fold difference in Ki against the glycosylated forms of Examples 1 and 21 [1]: 10 fold
Molecule: C(disialo sugar chain)ANSC(disialo sugar chain)PAMC(disialo sugar chain)PRERKAGCKNFFWKTFTSC (disulfide 17-28) [S1C(disialo).N5C(disialo).A9C(disialo)-SRIF28]

IC50 of cAMP production suppressing action (agonist activity) [12]: 80 pM
Molecule: C(disialo sugar chain)ANSNPAMAPRERKAGCKC(GlcNAc)FFWKTFTSC (disulfide 17-28) [S1C(disialo).N19C(GlcNAc)-SRIF28]

IC50 [13]: 30000 pM
Molecule: SANSC(disialo)PAMC(disialo)PRERKAGCKNFFWKTFTSC (disulfide 17-28) [N5C(disialo).A9C(disialo)-SRIF28]
